# From patent US20160052993A1
# Key:
# hFcRn (human) = hFcRn (human) (UniProt P61769); assay: ELISA; conditions: other; remark: other sources report otherwise
# [1] = biological target: single-chain human FcRn, FLAG/His-tagged (human) (UniProt P61769); assay: ELISA, HSA variant immobilised, schFcRn titrated, pH 5.5 (asterisk)
Kd (hFcRn (human)),Kd [1],Substance
91.8 nM,,HSA13+H535F (from UniProt P02768 25-609)
,250 nM,HSA18 (V424I) (from UniProt P02768 25-609)
32 nM,,HSA13+H510F (from UniProt P02768 25-609)
